Assay results reported in the nanobody polyreactivity screen of Harvey et al. (2022).

Assay: yeast display, Sf9 membrane polyspecificity reagent, FACS + sequencing; frameworks hold sequencing errors
Method in brief: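 Polyreactivity labels are assigned by the sorting gate from which each nanobody was recovered. The gates were low and high (top ~1%), set on anti-HA fluorescence for expression and streptavidin fluorescence for reagent binding. Before sorting, galactose-induced (36–48 hours) yeast display cells were stained for 1 hour at 4 °C with 10% biotinylated, detergent-solubilized Sf9 membrane reagent.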

Row | Sequence | polyreactivity (PSR sort gate)
1 | QVHLVESGGGLVQAGGSLRLSCAASGRTFPGYAMGWYRQAPGKERELVATITGNAGSTYYADSVKGRFTISRDNAKNTVYLQMNSLKPEDTAVYYCAAGRRRPYVRAYRGTDYWGQGTQVTVSS | low polyreactivity
2 | QVHLVESGGGLVQAGGSLRLSCAASGRTFSWNALGWYRQAPGKQRELVAVISRGDSTNYADSVKGRFTISRDNEKNTVYLQMNSLKPVDNAVYYCAADGYPPGYGYWGQGTQVTVSS | low polyreactivity
3 | QVHLVESGGGLVQAGGSLRLSCAASGRTFVFNAMGWYRQAPGKEREFVAAITWGGGSTYYADSVKGRFTISRDNAKNTVYLQMNSLKPEDTADYYCARPTTYGYYYWGQGTQVTVSS | high polyreactivity
4 | QVHLVESGGGLVQAGGSLRLSCAASGRTIGVNAMGWYRQPHGTERELVAAITKDSGATNYADSVKGLFTISRDNAKITVYFQMNSLKADDTAVYYCAARVWVRGYYWGQGTQVTVSS | low polyreactivity
5 | QVHLVESGGGLVQAGGSLRLSCAASGRTLAPNAMGWYRQAPGKERELVATITRGGTTNYADSVKGRFTISRDNAKNTVYLQMNSLKPEDTAVYYCAAGYPSWYYGYPYDSWGQGTQVTVSS | low polyreactivity
6 | QVHLVESGGGLVQAGGSLRLSCAASGRTVEGNAMGWYIQAPGKERELVAAITSGGRTNYADSVKGRFTISRDNAKNTVYLQMNSLKPVDTAVYYCAVETRDRSTDFPGQAYDYWGQGTQLTVSS | low polyreactivity
7 | QVHLVESGGGLVQAGGSLRLSCAASGSIFFGNAMGWYRQAPGKERQLVAAISTTGGSTYYADSVKGRFTISRDNAKNTVYLQMNSLKPEDTAVFFCNSDRATWWEQWWYDYWGQGTQVTVSS | low polyreactivity
8 | QVHLVESGGGLVQAGGSLRLSCAASGSIFGPYMGWYRQAPGKERELVASVVSTYYADSVKGRFTISRDNAKNTVYLQMNSLKPEYTAVYYCNTQDTKNKSSVFVPSDYWGQGTQVTVSS | low polyreactivity
9 | QVHLVESGGGLVQAGGSLRLSCAASGSIFNVNAMGWYRQAPGKERELVAAISSGGDTYYADSVKGRFTISRDNAKNTVYLQMNCLKPEDTAVYYCAKQSYTLYTLLYDYWGQGTQVTVSS | low polyreactivity
10 | QVHLVESGGGLVQAGGSLRLSCAASGSIFSWNAMGWYRQAPGKERELVAAISKRGTSTYYADSVKGRFTISRDNAKNTVYLQMNSLKPEDTAVYYCAARAQSYPYLSFDYWGQGTQVTVSS | high polyreactivity
11 | QVHLVESGGGLVQAGGSLRLSCAASGSIFVYNSMGWYRQAPGKEMELVAGITFIGGSTYYADSVKGRFTISRDNAKNTVYLQKNSLKPEDTAVYYCNADVAPGIFYGYDSWGQGTQVTVSS | low polyreactivity
12 | QVHLVESGGGLVQAGGSLRLSCAASGSIFWWYAMGWYRQAPGKERELVAAIRWSGTTAFYADSVKGRFTISRDYAKNTVYLQMNSLKPEDTAVYYCNAEGGIWGGTTGYDYWGQGTQVTVSS | low polyreactivity
13 | QVHLVESGGGLVQAGGSLRLSCAASGSIFYTNAMGWYSQAPGKERELVAAISYSGGRTYYADSVKGRFTISRDNAKNTVYIQMNSLKPEDTAVFYCNTVLRGGSTEAFDYWGQGTKVTVSS | high polyreactivity
14 | QVHLVESGGGLVQAGGSLRLSCAASGSIFYYNAMGSYRHAPGKERELVAAINWSGDRTYYADSVKGRFTISRDNAKNTVYLQMNSLKPEYTAVYYCAATAWPGRYWRQEVDYWGQGTQVTVSS | high polyreactivity
15 | QVHLVESGGGLVQAGGSLRLSCAASGSILGSNAMGWYRQAPGKERELVAAISSGGSTDYADSVKVRFTISRDNAKNTVYLQMYCLKPEDTAVYYCAAGFIYHYGLYKIYDYYYWGQGTQVTVSS | low polyreactivity
16 | QVHLVESGGGLVQAGGSLRLSCAASGSILSDNTLGWYRQAPGKERELVAAISRSGGTTYYADSVKGRFTISRDNAKNTVYLQMNSLKPEDTAVYYCAARYYYRYNYWGQGTQVTVSS | high polyreactivity
17 | QVHLVESGGGLVQAGGSLRLSCAASGSTFAANAMGWYRQAPGKERELVAAITSSGGSTYYADSVKGRFTISRDNAKNTVYLQMNSLKPEDTAVYYCKKDIERYFRIYDSWGQGTQVTVSS | low polyreactivity
18 | QVHLVESGGGLVQAGGSLRLSCAASGSTFDPNAMGWYTQAPGKERELVAAISYTGGRTYYADSVKGRFTISRDKAKNTVYLQMNSLKPEATAVYYCAVLVVGSPTQDEPYVSGVEHDYWGQGTQVTVSS | low polyreactivity
19 | QVHLVESGGGLVQAGGSLRLSCAASGSTFFIYTMGWYRQAPGKEREFVAAISWTGGRTYYADSVKGRFTISRDNAKNTVFLQMNSLKPEDTAVYYCAARYKYYSYDYWGQGTQVTVSS | high polyreactivity
20 | QVHLVESGGGLVQAGGSLRLSCAASGSTFFLYAMGWYRQAPGKERELVAAISSGGSTYYADSVKGRFTISRDNAKNTVYLQMTRLKPEDTAVYYCARDRIDTTDRTWRGDYWGQGTQATVSS | low polyreactivity
21 | QVHLVESGGGLVQAGGSLRLSCAASGSTFGLKAMGWYRQAPGKEREFVASINFNDGSTYYADSVKGRFTISRDNAKNTVYLQMNSLKPEDPAVYYCAVELWWKWPFYYWGQGTQVTVSS | high polyreactivity
22 | QVHLVESGGGLVQAGGSLRLSCAASGSTFLPNAMGWYRQAPGKERELVAAITNGGGTNYADSVKGRFTISRDNAKNTVYLQMYSLKPEDTAVYYCNADSTYFGGHDYWGPGTQVTVSS | low polyreactivity

Row | Sequence | polyreactivity (PSR sort gate)
23 | QVHLVESGGGLVQAGGSLRLSCAASGSTFNYNAMGWYRQAPGKERELVAAISGSGGSTYYADSVKGRFTISRDNAKNSVYLQMNSLKPEDTAVDYCAGLYGPGRAFDYWGQGTQVTVSS | low polyreactivity
24 | QVHLVESGGGLVQAGGSLRLSCAASGSTFSIYAMGWYRQAPGKERELVAAINSGGDTNYADSVKGRFTISRDNAKNTVYLQMNSLKPEDTAVYYCAKQVYTSRRSRGRYGFGYWGQGTQVTVSS | high polyreactivity
25 | QVHLVESGGGLVQAGGSLRLSCAASGSTFTLNTMGWYRQAPGKERELVAGIRSGGSTYYADSVKGRFTISRDNAKNTVYLQMNSLKPEDTAVYYCAADRRWFAYWFDYWGQGTQVTVSS | low polyreactivity
26 | QVHLVESGGGLVQAGGSLRLSCAASGSTFTPYAMGWYRQAPGKERELVAAITWRTGSTRYADSVKGRFTISRDNAKNTVYLQMNSLKPEDTAVYYCAAKVPRFGAPGVNYWGQGTQVTVSS | high polyreactivity
27 | QVHLVESGGGLVQAGGSLRLSCAASGSTFTYNTMGWYRQAPGKERELVAAITWSGGRTYYADSVKGRFTISRDNAKNTVYLQMNSLKPEDTAVYYCNADSSGVTSAYDYWGQGTQVTVSS | high polyreactivity
28 | QVHLVESGGGLVQAGGSLRLSCAASGSTFTYYAMGWYRQAPGKERELVAAITGRGGRTYYADSVKGRFTISRDNAKNTVYLQMNSLKPEDTAVYYCARYPSSDTYWTKYDYWGQGTQVTVSS | high polyreactivity
29 | QVHLVESGGGLVQAGGSLRLSCAASGSTFTYYDMVWYRKAPGNETELLATIDSTTRTYYADSVKGRFTISRDNAKNTVSLQMNSLKPEETAVYYCAADLTWAYFYYLFYRYDYWGQGTQVTVSS | low polyreactivity
30 | QVHLVESGGGLVQAGGSLRLSCAASGSTFYRYAMGWYRQAPGKEREFVAAISTRGGSTHYADSVKGRFTISRDNAKNTVYLQMNSLKPEDTAVSYCNARGYYSVPSNTGIRYYRFDYWGQGTQVTVSS | low polyreactivity
31 | QVHLVESGGGLVQAGGSLRLSCAASGSTLYDNAMGWYRQAPGKERELVAAITRRGAGTYYADSVKGRFTISRDNAKNTVYLQMNSLKPEDTAVYYCNAGRPYFVRYYYWGHGTQVTVSS | high polyreactivity
32 | QVHLVESGGGLVQAGGSLRLSCAASGYTFLANAMGWYSQAPGKERELVAAISSGGTTYYADSVKGRFTISRDNAKNTVYLQMNSLKPEDTAVYYCATVFRDYDFNHWGQGTQVTVSS | low polyreactivity
33 | QVHLVESGGGLVQAGGSLRLSCAASRSTFVNYAMGWYRQAPGKERELVAGISRSGGSTYYADSVKGRFTISRDNAKNTVYLQMNSLKPDDTAVYYCAKRYGRLTRYDYWGQGTQVNVSS | high polyreactivity
34 | QVHLVESGGGLVQAGGSLRLSCAASVFTFNSNAMGWYRQAPGKERELVAAISWSGGSTYYADSVKGRFTISRDNAKNTVYLLMNSLKPEDTAVYYCAKGYRRVYGPFYYWGQGTQLTVSS | low polyreactivity
35 | QVHLVESGGGLVQAGGSLRLSCAATGSTFSNYAMGWNRQAPGKERELVASISNGGSTNYADSVKGRFTISRDNANNTVYLQMNSLKPVDTEVYFCIAESKAKYDYWGQGTQVSVSS | low polyreactivity
36 | QVHLVESGGGLVQAGGSLRLSCAATGSTFTINAMGWYRQAPGKERELVAAINDGDDTYYADSVKGRFTISRDNAKNTVYLQMNSLKPEDTAVYFCAADIIYGYEVYTYTSDYWGQGTQVTVSS | low polyreactivity
37 | QVHLVESGGGLVQAGGSLRLSCADSGTTFHKYAMGWYRQAPGTERELVARISVGGDSTYYADSVKGRFTISRDNAKNTDYLQIISLKPEDTAVYYCAKVRYLVFLYPPRYYYWGQGTEVTVSS | low polyreactivity
38 | QVHLVESGGGLVQAGGSLRLSCASSGSIFGPYVMGWYRQAPRKERELVAAITWNGGSTNYADSLKGRFTISRDNAKNTVYLQMNSLKPEETAVYYCNTVSWPLSSKYYYWGQGTQVSVSS | high polyreactivity
39 | QVHLVESGGGLVQAGGSLRLSCPASGLTFYRYAMGLYRPAPGKERELVAAISSGGNTYYADSVKGRFTISRDNAKNTVYLQMNSMKPEDTAVYYCAAESYALRGHPGYYYWGQGSQVTVSS | high polyreactivity
40 | QVHLVESGGGLVQAGGSLRLSFAASGRTFRGNDMGWYRQAPGKERELVATITRNGGSTRYADSVKGRFTISRDNAKNNVYLQMNSLKPEDSAVYYCNARSRYFGYDYWGQGTQVTVSS | high polyreactivity
41 | QVHLVESGGGLVQAGGSLRLSFAAYGSIFIQYVMGWYRQAPGKERELVAAISRRGGSTYYADSVKGRFTISRDNAKNTVYLHMNSLKPEDTAVYYCAAGSAYSIGYYWGQGTQVTVSS | high polyreactivity
42 | QVHLVESGGGLVQAGGSLRLSSAASGRNFFNYAMGWYRQAPGKERELVAAISTGGSTTYADSVKGRFTISRDNAKNTVYLQMNSLKPEDTAVYYCARRGRRYRQYSRYYYWGQGTQVTVSS | high polyreactivity
43 | QVHLVESGGGLVQAGGSLRLSSAASGSIFDSNAMGWYRQAPGKERELVAAINSTDITKYADSVKGRFTISRDNAKNTVYLQMNSLKPEDTAVYYCAKDQSLTYSSLWGYDYWGQGTQVTVSS | low polyreactivity
